According to US6991908B1, “Antiobestic agents methods for screening antiobestic agents and kits comprising same” (Takeda Chemical Industries, Ltd., priority 1998, dated 2006):
pIC50: −log10 of the molar value. Positions of bridges follow the written chain, without caps; N, C: chain ends. No end group written: not given here. *: point of attachment. X1 = 3‑(4-hydroxy-3-iodophenyl)propionyl, O=C(CCc1ccc(O)c(I)c1)*

How the values were obtained:
Assay type in all cases: biochemical
rat SLC-1 [1] = biological target: T1, rat SLC-1 (Rattus norvegicus, UniProt P97639); test: Inhibition of MCH-induced GTPγS binding by the method of Example 21 (compound plus MCH); conditions: read-out: IC50 calculated from the binding inhibition rate (%)
T1 construct: expressed in transfected cells; host or cells: CHO dhfr- cells, plasmid pAKK0-SLC-1, mainly clone #44
Experimental: The IC50(nM) of the compound (1) supra
(§1) A rat SLC-1-expression CHO cell membrane fraction was prepared by the following procedure. Rat SLC-1-expression CHO cells (1×10^8 cells) were suspended in phosphate buffered saline (pH 7.4) supplemented with 5 mM EDTA (ethylene diamine tetra acetic acid) followed by centrifugation. after 10 ml of a homogenate buffer (10 mM NaHCO3, 5 mM EDTA, pH 7.5) was added to the cell pellets, the mixture was homogenized with a polytron homogenizer. the homogenate was then centrifuged at 400×g for 15 minutes. the resulting supernatant was further centrifuged at 100,000×g for an hour to give membrane fraction precipitates. the precipitates were suspended in 2 ml of an assay buffer (50 mM Tris-HCl (pH 7.5), 1 mM EDTA, 0.1% BSA (bovine serum albumin), 10 mM MgCl2, 100 mM NaCl, 1 μM GDP (guanosine 5′-diphosphate), 0.25 mM PMSF (phenylmethylsulfonyl fluoride), 1 μg/ml pepstatin, 20 μg/ml leupeptin, 10 μg/ml phosphoramidon). the suspension was centrifuged at 100,000×g for an hour. the cell membrane recovered as precipitates was resuspended in 20 ml of the assay buffer. after dispensing, the suspension was stored at −80° C., which maybe thawed every time upon use.

rat SLC-1 [2] = biological target: T1, rat SLC-1; test: Agonist activity by GTPγS binding assay, rat SLC-1-expression CHO cell membrane fraction (Example 21); conditions: rat SLC-1 membrane, FIG. 7
Experimental: as §1

human SLC-1 = biological target: T2, human SLC-1 (Homo sapiens, UniProt Q99705); test: Agonist activity of Bolton-Hunter derivatized MCHs by GTPγS binding assay (Example 22); conditions: membrane fraction given as human SLC-1-expression CHO; FIG. 8
T2 construct: expressed in transfected cells; host or cells: CHO dhfr- cells, plasmid pAKK0-hSLC-1(S) or pAKK0-hSLC-1(L)
T2 sequence (Q99705 with tags, fused parts or gaps): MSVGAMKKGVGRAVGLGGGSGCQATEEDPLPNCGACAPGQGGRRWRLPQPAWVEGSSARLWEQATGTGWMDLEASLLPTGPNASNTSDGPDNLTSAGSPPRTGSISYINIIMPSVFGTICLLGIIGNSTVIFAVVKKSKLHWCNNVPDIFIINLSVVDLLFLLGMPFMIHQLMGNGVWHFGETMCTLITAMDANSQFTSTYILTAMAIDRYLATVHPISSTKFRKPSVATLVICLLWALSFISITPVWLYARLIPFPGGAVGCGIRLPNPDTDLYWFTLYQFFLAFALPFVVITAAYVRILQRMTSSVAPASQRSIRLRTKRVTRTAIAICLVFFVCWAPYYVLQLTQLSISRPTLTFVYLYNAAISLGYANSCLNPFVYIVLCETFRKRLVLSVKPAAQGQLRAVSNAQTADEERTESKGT

T1 sequence (P97639 whole entry): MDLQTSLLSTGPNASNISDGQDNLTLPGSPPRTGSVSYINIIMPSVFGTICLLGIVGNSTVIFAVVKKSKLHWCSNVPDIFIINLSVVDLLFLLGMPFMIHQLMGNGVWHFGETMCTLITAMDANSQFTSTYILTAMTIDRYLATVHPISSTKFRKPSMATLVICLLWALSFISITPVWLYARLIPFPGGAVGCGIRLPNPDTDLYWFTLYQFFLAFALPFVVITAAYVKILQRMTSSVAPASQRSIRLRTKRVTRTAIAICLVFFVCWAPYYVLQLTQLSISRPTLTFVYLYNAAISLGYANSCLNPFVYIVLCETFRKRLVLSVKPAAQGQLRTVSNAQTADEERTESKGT

Compound | agonist activity as compared to that of MCH (rat SLC-1 [2]) | amount of [35S]-GTPγS bound (agonist activity), dose dependence (human SLC-1) | also measured
COc1ccc(-c2ccc(C(=O)Nc3ccc4c(c3)CCC(CN(C)C)C4)cc2)cc1 (stereo not shown) [compound (1), N-[2-(N,N-Dimethylamino)methyl-6-tetralinyl]-(4′-methoxybiphenyl-4-yl)carboxamide] | – | – | pIC50 (rat SLC-1 [1]): 7.40
Asp-Met-Leu-Arg-Cys-Met-Leu-Gly-Arg-Val-Tyr-Arg-Pro-Cys -Trp-Gln-Val (DMLRCMLGRVYRPCWQV; disulfide 5-14) [MCH(3-19)] | almost the same agonist activity | – | –
BH-MCH(2-19): MCH(2-19) derivatized with a non-isotope Bolton-Hunter reagent (X1-FDMLRCMLGRVYRPCWQV; disulfide 6-15) | – | increased dose-dependently | –
BH-MCH(3-19): MCH(3-19) derivatized with a non-isotope Bolton-Hunter reagent (X1-DMLRCMLGRVYRPCWQV; disulfide 5-14) | – | increased dose-dependently | –
BH-MCH(5-19): MCH(5-19) derivatized with a non-isotope Bolton-Hunter reagent (X1-LRCMLGRVYRPCWQV; disulfide 3-12) | – | increased dose-dependently | –
Des-[Asp^1, Phe^2, Asp^3, Met, Leu^5]-MCH (RCMLGRVYRPCWQV; disulfide 2-11) [MCH(6-19)] | – | – | decrease of agonist activity as compared to that of MCH (rat SLC-1 [2]): approximately 10 times
Leu-Arg-Cys-Met-Leu-Gly-Arg-Val-Tyr-Arg-Pro-Cys-Trp-Gln -Val-OH (LRCMLGRVYRPCWQV-OH; disulfide 3-12; N-terminus assumed; SMILES CSCC[C@@H]1NC(=O)[C@@H](NC(=O)[C@H](CCCNC(=N)N)NC(=O)[C@@H](N)CC(C)C)CSSC[C@@H](C(=O)N[C@@H](Cc2c[nH]c3ccccc23)C(=O)N[C@@H](CCC(N)=O)C(=O)N[C@H](C(=O)O)C(C)C)NC(=O)[C@@H]2CCCN2C(=O)[C@H](CCCNC(=N)N)NC(=O)[C@H](Cc2ccc(O)cc2)NC(=O)[C@H](C(C)C)NC(=O)[C@H](CCCNC(=N)N)NC(=O)CNC(=O)[C@H](CC(C)C)NC1=O) [MCH(5-19)] | almost the same agonist activity | – | –
Met-Leu-Arg-Cys-Met-Leu-Gly-Arg-Val-Tyr-Arg-Pro-Cys-Trp -Gln-Val (MLRCMLGRVYRPCWQV; disulfide 4-13) [MCH(4-19)] | almost the same agonist activity | – | –
Phe-Asp-Met-Leu-Arg-Cys-Met-Leu-Gly-Arg-Val-Tyr-Arg-Pro -Cys-Trp-Gln-Val (FDMLRCMLGRVYRPCWQV; disulfide 6-15) [MCH(2-19)] | almost the same agonist activity | – | –
[N-(3-(4-Hydroxy-3-iodophenyl)propionyl)-Met^4]-MCH(4-19) (X1-MLRCMLGRVYRPCWQV; disulfide 4-13) [BH-MCH(4-19)] | – | increased dose-dependently | –
